Reference: article doi:10.1101/2023.09.01.555870 (bioRxiv, 2023)

Biological target: the molecule itself
Experiment: NMR solution structure

B1: carboxy-terminal domain (CTD) fragment of λ Ea22 (102-182) (domain or fragment, bacteriophage λ)
chain: SNEVREDGNQFLVVRHPGKTPVIKHCTGDLEEFLRQLIEQDPLVTIDIITHRYYGVGGQWVQDAGEYLHMMSDAGIRIKGEIETAV
Question: Does B1 bind?
Answer: Result: binds
